Data reported in the supplement of paper PMC7877785.
± gives the uncertainty stated by the source.

Assay: self-splicing fitness, log relative to wild type (ln ratio); higher = more splicing; Tetrahymena group I intron in knt gene, E. coli kanamycin selection, DiMSum; sequences stand for … in CUCUCU…GGAGGGAAAAGUUAUCAGGCAUGCACCUGGUAGCUAGUCUUUAAACCAAUAGAUUGCAUCGGUUUAAAAGGCAAGACCGUCAAAUUGCGGGAAAGGGGUCAACAGCCGUUCAGUACCAAGUCUCAGGGGAAACUUUGAGAUGGCCUUGCAAAGGGUAUGGUAAUAAGCUGACGGACAUGGUCCUAACCACGCAGCCAAGUCCUAAGUCAACAGAUCUUCUGUUGAUAUGGAUGCAGUUCACAGACUAAAUGUCGGUCGGGGAAGAUGUAUUCUUCUCAUAAGAUAUAGUCGGACCUCUCCUUAAUGGGAGCUAGCGGAUGAAGUGAUGCAACACUGGAGCCGCUGGGAACUAAUUUGUAUGCGAAAGUAUAUUGAUUAGUUUUGGAGUACUCGUGGUCG
Method in brief: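 Pooled colonies went to amplicon sequencing on an Illumina HiSeq 2500 after six replicate transformations. The plates were LB agar with 100 μg/mL carbenicillin, 50 μM IPTG and 0.2% rhamnose, with or without 25 μg/mL kanamycin, incubated overnight at 37°C or 30°C. The E. coli BL21(DE3) library had all eight P1ex-region intron nucleotides randomised, the intron placed in the knt kanamycin-resistance gene on pET-22b(+). DiMSum fitness is the error-weighted combination of replicate fold changes, kanamycin against none, normalised to wild type.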

Row | Sequence | self-splicing fitness (ln) (30 °C) | self-splicing fitness (ln) (37 °C)
1 | CAUAAGCAAUAUUACGACUG | -0.582 ± 0.072 | -0.476 ± 0.1
2 | UAAGAGCAAUAUUACGGGAU | -3.55 ± 0.31 | -2.99 ± 0.28
3 | UCGAAGCAAUAUUACGAUAC | -3.33 ± 0.25 | –
4 | UUUAAGCAAUAUUACGAAUG | -1.54 ± 0.13 | -0.41 ± 0.15
5 | CGCGAGCAAUAUUACGUCCU | – | -1.69 ± 0.48
6 | UUACAGCAAUAUUACGGGGC | -3.36 ± 0.48 | -1.17 ± 0.45
7 | UACGAGCAAUAUUACGAGAC | -3.68 ± 0.26 | -2.72 ± 0.27
8 | UAGUAGCAAUAUUACGAGAA | – | -1.76 ± 0.43
9 | ACAUAGCAAUAUUACGGAGA | -3.28 ± 0.25 | -2.47 ± 0.24
10 | AUAUAGCAAUAUUACGUGGA | -3.57 ± 0.27 | -3.04 ± 0.26
11 | GUUCAGCAAUAUUACGACAA | -1.06 ± 0.18 | -0.319 ± 0.18
12 | CAUUAGCAAUAUUACGACUG | -0.158 ± 0.079 | 0.262 ± 0.092
13 | CAAUAGCAAUAUUACGUAGU | -3.31 ± 0.29 | -2.44 ± 0.22
14 | UUUGAGCAAUAUUACGCAAC | – | -1.71 ± 0.26
15 | UCUGAGCAAUAUUACGUCAA | -2.53 ± 0.24 | -2.22 ± 0.27
16 | GGACAGCAAUAUUACGAACC | -1.23 ± 0.27 | -0.895 ± 0.23
17 | CUAUAGCAAUAUUACGUCUA | -3.05 ± 0.36 | -3.16 ± 0.35
18 | UUGCAGCAAUAUUACGGCAC | -0.586 ± 0.17 | -0.741 ± 0.19
19 | GGACAGCAAUAUUACGGUUU | -2.12 ± 0.072 | -0.504 ± 0.073
20 | AACAAGCAAUAUUACGCAGC | -3.18 ± 0.16 | -2.53 ± 0.18
21 | GUCCAGCAAUAUUACGGAUA | -0.361 ± 0.056 | 0.0186 ± 0.063
22 | UCCGAGCAAUAUUACGCCGA | -1.56 ± 0.23 | -0.047 ± 0.16
23 | AUUAAGCAAUAUUACGUUUA | -1.61 ± 0.14 | -1.54 ± 0.15
24 | CAAGAGCAAUAUUACGGUGG | -2 ± 0.082 | -1.58 ± 0.11
25 | ACUAAGCAAUAUUACGUAGU | -3.04 ± 0.14 | -3.45 ± 0.21

Row | Sequence | self-splicing fitness (ln) (30 °C) | self-splicing fitness (ln) (37 °C)
26 | AGUAAGCAAUAUUACGUGGU | -4.77 ± 0.29 | -2.59 ± 0.17
27 | UCACAGCAAUAUUACGGGCC | -3.95 ± 0.34 | -2.76 ± 0.33
28 | UAAAAGCAAUAUUACGGGAG | -2.66 ± 0.14 | -1.25 ± 0.11
29 | AGAUAGCAAUAUUACGGCUC | -1.14 ± 0.32 | -0.656 ± 0.37
30 | UCUCAGCAAUAUUACGAUGA | -1.01 ± 0.12 | -0.477 ± 0.11
31 | CUUAAGCAAUAUUACGCCAU | -1.9 ± 0.33 | -2.35 ± 0.29
32 | GCCUAGCAAUAUUACGGCGU | -0.505 ± 0.074 | -0.0919 ± 0.08
33 | GAACAGCAAUAUUACGGCUG | -2.78 ± 0.14 | -2.06 ± 0.15
34 | CAGGAGCAAUAUUACGGAUC | -4.29 ± 0.23 | -3.84 ± 0.34
35 | UGCUAGCAAUAUUACGCUAG | -2.28 ± 0.22 | -2.65 ± 0.34
36 | GUAAAGCAAUAUUACGAAUU | -2.11 ± 0.16 | -0.966 ± 0.18
37 | CGCGAGCAAUAUUACGUGAG | -4.51 ± 0.39 | -2.54 ± 0.32
38 | GCGUAGCAAUAUUACGGUAU | -2.03 ± 0.077 | -0.828 ± 0.1
39 | ACGGAGCAAUAUUACGCUUG | -1.71 ± 0.11 | -0.212 ± 0.1
40 | AGAAAGCAAUAUUACGAACC | -1.29 ± 0.17 | -0.276 ± 0.13
41 | GCGAAGCAAUAUUACGUGCC | -3.73 ± 0.18 | -3 ± 0.23
42 | CCGAAGCAAUAUUACGUGUC | -3.49 ± 0.23 | -1.34 ± 0.16
43 | CCGGAGCAAUAUUACGCGGG | -4.25 ± 0.39 | -2.25 ± 0.19
44 | UGUGAGCAAUAUUACGACAA | -1.97 ± 0.14 | -1.68 ± 0.14
45 | UAUCAGCAAUAUUACGACUA | 0.123 ± 0.068 | 0.517 ± 0.095
46 | ACUAAGCAAUAUUACGCCAA | -2.24 ± 0.12 | -2.26 ± 0.16
47 | AAAAAGCAAUAUUACGUGUC | -3.44 ± 0.17 | -1.79 ± 0.17
48 | ACCAAGCAAUAUUACGCAAU | -2.01 ± 0.1 | -1.04 ± 0.1
49 | UGAUAGCAAUAUUACGACCA | -2.04 ± 0.23 | -0.327 ± 0.37
